Measured values taken from article PMC10786891, “Massively parallel profiling of RNA-targeting CRISPR-Cas13d”.
Numbering of substitutions follows the chain as printed. In names and notes the source's numbering stands.

T1: EsCas13d, nuclease-dead (Eubacterium siraeum, UniProt B0MS50, R295A;H300A;R849A;H854A)
T1 sequence: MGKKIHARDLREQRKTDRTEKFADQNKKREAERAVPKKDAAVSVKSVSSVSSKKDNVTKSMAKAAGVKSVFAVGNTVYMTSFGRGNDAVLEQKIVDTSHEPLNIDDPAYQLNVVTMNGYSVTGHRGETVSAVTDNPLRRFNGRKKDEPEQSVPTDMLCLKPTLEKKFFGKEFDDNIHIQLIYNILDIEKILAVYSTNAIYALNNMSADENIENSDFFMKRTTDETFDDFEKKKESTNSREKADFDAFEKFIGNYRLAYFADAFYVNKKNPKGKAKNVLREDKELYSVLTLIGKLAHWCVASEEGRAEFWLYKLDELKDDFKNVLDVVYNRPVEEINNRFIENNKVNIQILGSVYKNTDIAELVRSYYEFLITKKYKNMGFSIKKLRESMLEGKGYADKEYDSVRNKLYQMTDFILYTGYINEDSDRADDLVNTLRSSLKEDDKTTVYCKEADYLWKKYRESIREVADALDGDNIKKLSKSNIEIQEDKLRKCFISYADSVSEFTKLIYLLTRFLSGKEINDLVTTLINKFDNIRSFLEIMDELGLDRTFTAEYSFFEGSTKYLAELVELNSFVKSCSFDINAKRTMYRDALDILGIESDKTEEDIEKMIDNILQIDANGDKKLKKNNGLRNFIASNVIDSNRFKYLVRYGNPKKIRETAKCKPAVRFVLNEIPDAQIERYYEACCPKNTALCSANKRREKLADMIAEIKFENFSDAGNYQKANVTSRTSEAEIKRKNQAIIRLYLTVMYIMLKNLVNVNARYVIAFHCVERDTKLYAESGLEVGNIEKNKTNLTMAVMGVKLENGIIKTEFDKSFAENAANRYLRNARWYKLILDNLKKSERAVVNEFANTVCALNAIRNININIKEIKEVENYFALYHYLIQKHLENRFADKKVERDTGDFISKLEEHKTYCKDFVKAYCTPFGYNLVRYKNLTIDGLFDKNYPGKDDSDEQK

B1: target 1 U8A,U10A (mixed)
RNA 1: CACCCGUGCAAAAAUGCAGGGGUCUAAAACUGAGCGGAUAACCUCUCUAUGG
RNA 2: GGGAAUGGAUCCACAUCUACGAAUUCGUACCAUAGAGAGGUAAACCGCUCACCGAGAUCGGAAGAGCACACGU
B2: target 1 A9U,G12C (mixed)
RNA 1: B1 RNA 1
RNA 2: B1 RNA 2 with G40C, A42U, A43U, A44U
B3: target 1 C4A,A14U (mixed)
RNA 1: B1 RNA 1
RNA 2: B1 RNA 2 with A38U, A42U, A44U, C48A
B4: target 1 insU 3' of 20,insC 3' of 17 (mixed)
RNA 1: B1 RNA 1
RNA 2: GGGAAUGGAUCCACAUCUACGAAUUCGUACCAUUAGCAGAGGUUAUCCGCUCACCGAGAUCGGAAGAGCACACGU
B5: target 1 del13,del15 (mixed)
RNA 1: B1 RNA 1
RNA 2: GGGAAUGGAUCCACAUCUACGAAUUCGUACCAUAGAAGUUAUCCGCUCACCGAGAUCGGAAGAGCACACGU
B6: target 1 C7U,A9C (mixed)
RNA 1: B1 RNA 1
RNA 2: B1 RNA 2 with A42U, A43C, A44U, C45U
B7: target 1 U8A,G13A (mixed)
RNA 1: B1 RNA 1
RNA 2: B1 RNA 2 with G39A, A42U
B8: target 1 insA 3' of 21,insU 3' of 21 (mixed)
RNA 1: B1 RNA 1
RNA 2: B4 RNA 2 with U34A, A35U, G36A, C37G
B9: target 1 U8G,A18U (mixed)
RNA 1: B1 RNA 1
RNA 2: B1 RNA 2 with A34U, A42U, A44G
B10: target 1 insG 3' of 16,insC 3' of 10 (mixed)
RNA 1: B1 RNA 1
RNA 2: B4 RNA 2 with U34A, A35G, G36A, C37G, A38G, G39A, A40G, G42U, U44C
B11: target 1 A16U,G17C (mixed)
RNA 1: B1 RNA 1
RNA 2: B1 RNA 2 with G35C, A36U, A42U, A44U
B12: target 1 insG 3' of 18,insC 3' of 3 (mixed)
RNA 1: B1 RNA 1
RNA 2: GGGAAUGGAUCCACAUCUACGAAUUCGUACCAUAGGAGAGGUUAUCCGCUCCACCGAGAUCGGAAGAGCACACGU
B13: target 1 G5U,G15C (mixed)
RNA 1: B1 RNA 1
RNA 2: B1 RNA 2 with G37C, A42U, A44U, G47U
B14: target 1 insU 3' of 9,insU 3' of 7 (mixed)
RNA 1: B1 RNA 1
RNA 2: GGGAAUGGAUCCACAUCUACGAAUUCGUACCAUAGAGAGGUUAUUCUCGCUCACCGAGAUCGGAAGAGCACACGU
B15: target 1 insC 3' of 13,insG 3' of 6 (mixed)
RNA 1: B1 RNA 1
RNA 2: B14 RNA 2 with G40C, U41G, A43U, U44A, U47C, C48G
B16: target 1 insC 3' of 3,insU 3' of 2 (mixed)
RNA 1: B1 RNA 1
RNA 2: B14 RNA 2 with U45C, U47G, G49U, U51C, C52U
B17: target 1 A14G,C22A (mixed)
RNA 1: B1 RNA 1
RNA 2: B1 RNA 2 with C30A, A38G, A42U, A44U
B18: target 1 insC 3' of 22,insG 3' of 2 (mixed)
RNA 1: B1 RNA 1
RNA 2: B12 RNA 2 with A32C, U33A, A34U, G35A, C52G
B19: target 1 insC 3' of 14,insA 3' of 6 (mixed)
RNA 1: B1 RNA 1
RNA 2: B14 RNA 2 with G39C, U41G, A43U, U44A, U47C, C48A
B20: target 1 insU 3' of 18,insG 3' of 10 (mixed)
RNA 1: B1 RNA 1
RNA 2: B12 RNA 2 with G35U, A44G, U45A, C46U, G48C, C49G, U50C, C51U
B21: target 1 C4U,G5A (mixed)
RNA 1: B1 RNA 1
RNA 2: B1 RNA 2 with A42U, A44U, G47A, C48U
B22: target 1 A9U,C21A (mixed)
RNA 1: B1 RNA 1
RNA 2: B1 RNA 2 with C31A, A42U, A43U, A44U
B23: target 1 insA 3' of 19,insU 3' of 1 (mixed)
RNA 1: B1 RNA 1
RNA 2: B12 RNA 2 with G35A, C52A, A53U
B24: target 1 insA 3' of 19,insC 3' of 1 (mixed)
RNA 1: B1 RNA 1
RNA 2: B12 RNA 2 with G35A, C52A, A53C
B25: target 1 del1,del5 (mixed)
RNA 1: B1 RNA 1
RNA 2: GGGAAUGGAUCCACAUCUACGAAUUCGUACCAUAGAGAGGUUAUCCCUCCCGAGAUCGGAAGAGCACACGU
B26: target 1 insA 3' of 19,insA 3' of 2 (mixed)
RNA 1: B1 RNA 1
RNA 2: B12 RNA 2 with G35A, C52A
B27: target 1 insA 3' of 17,insA 3' of 7 (mixed)
RNA 1: B1 RNA 1
RNA 2: B12 RNA 2 with G36A, C47A, G48C, C49G, U50C, C51U
B28: target 1 insC 3' of 18,insA 3' of 12 (mixed)
RNA 1: B1 RNA 1
RNA 2: B4 RNA 2 with U34A, A35C, C37A, A38G, G39A, A40G, G42A
B29: target 1 insA 3' of 11,insU 3' of 9 (mixed)
RNA 1: B1 RNA 1
RNA 2: B14 RNA 2 with U42A, A43U, U44A, C46U, U47C
B30: target 1 insA 3' of 22,insG 3' of 21 (mixed)
RNA 1: B1 RNA 1
RNA 2: B4 RNA 2 with C31A, A32C, U33G, U34A, A35U, G36A, C37G
B31: target 1 insC 3' of 20,insA 3' of 8 (mixed)
RNA 1: B1 RNA 1
RNA 2: B12 RNA 2 with U33C, A34U, G35A, C46A, G48C, C49G, U50C, C51U
B32: target 1 insU 3' of 20,insC 3' of 5 (mixed)
RNA 1: B1 RNA 1
RNA 2: B12 RNA 2 with A34U, G35A, U50C, C51U
B33: target 1 C4G,U19G (mixed)
RNA 1: B1 RNA 1
RNA 2: B1 RNA 2 with U33G, A42U, A44U, C48G
B34: target 1 insA 3' of 19,insG 3' of 1 (mixed)
RNA 1: B1 RNA 1
RNA 2: B12 RNA 2 with G35A, C52A, A53G

Target: T1, EsCas13d, nuclease-dead
Assay: crRNA (strand 1, pre-loaded); Mg2+; 40 mM Tris-HCl pH 7.5, 150 mM NaCl, 6 mM MgCl2, 1 mM DTT, 0.1% Tween-20, 0.2 mg/ml BSA; 25 C; 10 min per concentration, then washed
Conditions: tags: His6-TwinStrep-SUMO cleaved; N-terminal SNAP kept (SNAP-Surface 488); label: 3' end held by stalled T7 RNA polymerase

| Binder | Kd [nM] |
| --- | --- |
| B1 | 12.5 ± 0.7 |
| B2 | ~46 |
| B3 | ~60 |
| B4 | 44 ± 8 |
| B5 | 30 ± 5 |
| B6 | 8.9 ± 0.4 |
| B7 | 15 ± 0.7 |
| B8 | 9.1 ± 0.5 |
| B9 | 80 ± 19 |
| B10 | 40 ± 9 |
| B11 | 87 ± 23 |
| B12 | 80 ± 9 |
| B13 | 46 ± 9 |
| B14 | 25.4 ± 1.3 |
| B15 | 14.6 ± 1.6 |
| B16 | 37 ± 5 |
| B17 | 40 ± 4 |

| Binder | Kd [nM] |
| --- | --- |
| B18 | 21.1 ± 3.2 |
| B19 | 56 ± 12 |
| B20 | 68 ± 22 |
| B21 | 14.2 ± 1.5 |
| B22 | 35.8 ± 2.3 |
| B23 | 20 ± 1.7 |
| B24 | 18.6 ± 2.4 |
| B25 | 20.4 ± 1.2 |
| B26 | 19.9 ± 2.1 |
| B27 | 10.4 ± 0.5 |
| B28 | 80 ± 22 |
| B29 | 27.8 ± 2.2 |
| B30 | 43 ± 6 |
| B31 | 9.6 ± 0.5 |
| B32 | 36 ± 10 |
| B33 | 100 ± 50 |
| B34 | 20 ± 1.3 |
